Test results published in patent US20260098095A1 (Hoffmann-La Roche, published 2026).
Where a chain is given by its changes, count along the chain named.

Tests used:
Experiment in all cases: cell-based or functional assay
[1] = biological target: T1, HLA-A2/MAGE-A4 peptide MHC (pMHC) complex on cells (human)
[2] = biological target: T1, HLA-A2/MAGE-A4 peptide MHC (pMHC) …; remark: listed apart in the source
[3] = biological target: T1, HLA-A2/MAGE-A4 peptide MHC (pMHC) …; remark: listed apart in the source
UBE2V2 = UBE2V2 (human)
ARF3 = ARF3 (human)
[4] = biological target: HLA-A2 with peptide MAGA10 on T2 cells (human)
UNC80 = UNC80 (human)
VPS13D = VPS13D (human)
ARF1 = ARF1 (human)
MTOR = MTOR (human)
MAGEB2 = MAGEB2 (human)
URB1 = URB1 (human)
DYNC1H1 = DYNC1H1 (human)
KDM1A = KDM1A (human)
PIGG = PIGG (human)
SLC45A1 = SLC45A1 (human)
gutQ = gutQ (human)
PKP1 = PKP1 (human)
CCS = CCS (human)
CRMP1 = CRMP1 (human)
[5] = biological target: HLA-A2 with peptide MAGB6 on T2 cells (human)
FBXO34 = FBXO34 (human)
KEAP1 = KEAP1 (human)
BNRF1 = BNRF1 (human)
DPYSL3 = DPYSL3 (human)
pfkA = pfkA (human)
DPYSL4 = DPYSL4 (human)
GAPDHS = GAPDHS (human)
EDC3 = EDC3 (human)
H8A = H8A (human)
E7A = E7A (human)
R6A = R6A (human)
V10A = V10A (human)
T9A = T9A (human)
G5A = G5A (human)
G1A = G1A (human)
V2A = V2A (human)
[6] = biological target: T1, HLA-A2/MAGE-A4 peptide MHC (pMHC) …; remark: listed apart in the source
D4A = D4A (human)
Y3A = Y3A (human)

B1: Molecule E (bispecific antibody, V domains shown)
VH 1: not shown
VL 1: SSELTQDPAVSVALGQTVRITCQGDSLRSYYASWYQQKPGQAPVLVIYGKNNRPSGIPDRFSGSSSGNTASLTITGAQAEDEADYYCNSRQSSYYHHIVFGGGTKLTVL
VH 2: not shown
VL 2: QAVVTQEPSLTVSPGGTVTLTCGSSTGAVTTSNYANWVQEKPGQAFRGLIGGTNKRAPGTPARFSGSLLGGKAALTLSGAQPEDEAEYYCALWYSNLWVFGGGTKLTVL
EC50 [pM], activation of Jurkat-NFAT reporter cells (luminescence, 6 h) with MAGE-A4 peptide pulsed T2 cells [1]: 877 pM | EC50 [pM] 24 h, T-cell mediated lysis of MAGE-A4 peptide pulsed T2 cells [2]: 32.7 pM | EC50 [pM], T-cell mediated lysis of C-33A cells, 24 h [3]: 3980 pM | EC50 [pM], T-cell mediated lysis of IM-9 cells, 24 h [3]: 393 pM | EC50 [pM], T-cell mediated lysis of NCI-H1755 cells, 24 h [3]: 84.4 pM | EC50 [pM], T-cell mediated lysis of UMUC-3 cells, 24 h [3]: ~5800 pM | % of MAGE-A4 signal, Jurkat-NFAT (UBE2V2): 0.4% | % of MAGE-A4 signal, Jurkat-NFAT (ARF3): 0.85% | % of MAGE-A4 signal, Jurkat-NFAT; grey (>2%) [4]: 43.2% | % of MAGE-A4 signal, Jurkat-NFAT (UNC80): 0.49% | % of MAGE-A4 signal, Jurkat-NFAT; grey (>2%) (VPS13D): 47% | % of MAGE-A4 signal, Jurkat-NFAT (ARF1): 0.93% | % of MAGE-A4 signal, Jurkat-NFAT (MTOR): 0.29% | % of MAGE-A4 signal, Jurkat-NFAT; grey (>2%) (MAGEB2): 108% | % of MAGE-A4 signal, Jurkat-NFAT (URB1): 1.2% | % of MAGE-A4 signal, Jurkat-NFAT (DYNC1H1): 0.17% | % of MAGE-A4 signal, Jurkat-NFAT (KDM1A): 0.34% | % of MAGE-A4 signal, Jurkat-NFAT (PIGG): 0.26% | % of MAGE-A4 signal, Jurkat-NFAT (SLC45A1): 0.38% | % of MAGE-A4 signal, Jurkat-NFAT (gutQ): 0.31% | % of MAGE-A4 signal, Jurkat-NFAT (PKP1): 0.43% | % of MAGE-A4 signal, Jurkat-NFAT; grey (>2%) (CCS): 38.6% | % of MAGE-A4 signal, Jurkat-NFAT (CRMP1): 0.37% | % of MAGE-A4 signal, Jurkat-NFAT; grey (>2%) [5]: 110% | % of MAGE-A4 signal, Jurkat-NFAT; grey (>2%) (FBXO34): 4.03% | % of MAGE-A4 signal, Jurkat-NFAT (KEAP1): 0.34% | % of MAGE-A4 signal, Jurkat-NFAT (BNRF1): 0.45% | % of MAGE-A4 signal, Jurkat-NFAT (DPYSL3): 1.04% | % of MAGE-A4 signal, Jurkat-NFAT (pfkA): 0.26% | % of MAGE-A4 signal, Jurkat-NFAT (DPYSL4): 0.48% | % of MAGE-A4 signal, Jurkat-NFAT (GAPDHS): 0.39% | % of MAGE-A4 signal, Jurkat-NFAT (EDC3): 0.54% | EC50, Jurkat-NFAT activation (H8A): 1.23 nM | EC50, Jurkat-NFAT activation (E7A): 2.98 nM | EC50, Jurkat-NFAT activation (R6A): 2.37 nM | EC50, Jurkat-NFAT activation (V10A): 7.46 nM | EC50, Jurkat-NFAT activation (T9A): 4.26 nM | EC50, Jurkat-NFAT activation (G5A): 9.44 nM | EC50, Jurkat-NFAT activation (G1A): 2.72 nM | EC50, Jurkat-NFAT activation (V2A): 4.07 nM | EC50, Jurkat-NFAT activation [6]: 1.62 nM | EC50, Jurkat-NFAT activation (D4A): 22.3 nM | EC50, Jurkat-NFAT activation (Y3A): 2.06 nM

B2: Molecule F (bispecific antibody, V domains shown)
VH 1: not shown
VL 1: B1 VL 1 with G67S, Q91M, Y94R, I98D
VH 2: not shown
VL 2: B1 VL 2
EC50 [pM], activation of Jurkat-NFAT reporter cells (luminescence, 6 h) with MAGE-A4 peptide pulsed T2 cells [1]: 41.6 pM | EC50 [pM] 24 h, T-cell mediated lysis of MAGE-A4 peptide pulsed T2 cells [2]: 1.5 pM | EC50 [pM], T-cell mediated lysis of A-375 cells, 24 h [3]: 822 pM | EC50 [pM], T-cell mediated lysis of C-33A cells, 24 h [3]: 186 pM | EC50 [pM], T-cell mediated lysis of IM-9 cells, 24 h [3]: 8.3 pM | EC50 [pM], T-cell mediated lysis of NCI-H1755 cells, 24 h [3]: 2.7 pM | EC50 [pM], T-cell mediated lysis of NCI-H2023 cells, 24 h [3]: 890 pM | EC50 [pM], T-cell mediated lysis of U266B1 cells, 24 h [3]: 352 pM | EC50 [pM], T-cell mediated lysis of UMUC-3 cells, 24 h [3]: 429 pM | % of MAGE-A4 signal, Jurkat-NFAT (UBE2V2): 0.71% | % of MAGE-A4 signal, Jurkat-NFAT (ARF3): 1.53% | % of MAGE-A4 signal, Jurkat-NFAT; grey (>2%) [4]: 145% | % of MAGE-A4 signal, Jurkat-NFAT (UNC80): 1.05% | % of MAGE-A4 signal, Jurkat-NFAT; grey (>2%) (VPS13D): 172% | % of MAGE-A4 signal, Jurkat-NFAT (ARF1): 1.58% | % of MAGE-A4 signal, Jurkat-NFAT (MTOR): 0.42% | % of MAGE-A4 signal, Jurkat-NFAT; grey (>2%) (MAGEB2): 126% | % of MAGE-A4 signal, Jurkat-NFAT; grey (>2%) (URB1): 78.4% | % of MAGE-A4 signal, Jurkat-NFAT (DYNC1H1): 0.64% | % of MAGE-A4 signal, Jurkat-NFAT (KDM1A): 0.9% | % of MAGE-A4 signal, Jurkat-NFAT (PIGG): 0.78% | % of MAGE-A4 signal, Jurkat-NFAT (SLC45A1): 0.68% | % of MAGE-A4 signal, Jurkat-NFAT (gutQ): 0.73% | % of MAGE-A4 signal, Jurkat-NFAT (PKP1): 0.64% | % of MAGE-A4 signal, Jurkat-NFAT; grey (>2%) (CCS): 76.8% | % of MAGE-A4 signal, Jurkat-NFAT; grey (>2%) (CRMP1): 6.54% | % of MAGE-A4 signal, Jurkat-NFAT; grey (>2%) [5]: 130% | % of MAGE-A4 signal, Jurkat-NFAT (FBXO34): 0.78% | % of MAGE-A4 signal, Jurkat-NFAT (KEAP1): 0.66% | % of MAGE-A4 signal, Jurkat-NFAT (BNRF1): 0.55% | % of MAGE-A4 signal, Jurkat-NFAT; grey (>2%) (DPYSL3): 61.9% | % of MAGE-A4 signal, Jurkat-NFAT (pfkA): 0.8% | % of MAGE-A4 signal, Jurkat-NFAT; grey (>2%) (DPYSL4): 14.2% | % of MAGE-A4 signal, Jurkat-NFAT (GAPDHS): 1.01% | % of MAGE-A4 signal, Jurkat-NFAT (EDC3): 0.89% | EC50, Jurkat-NFAT activation (H8A): 0.0813 nM | EC50, Jurkat-NFAT activation (E7A): 0.332 nM | EC50, Jurkat-NFAT activation (R6A): 0.196 nM | EC50, Jurkat-NFAT activation (V10A): 0.791 nM | EC50, Jurkat-NFAT activation (T9A): 0.45 nM | EC50, Jurkat-NFAT activation (G5A): 1.09 nM | EC50, Jurkat-NFAT activation (G1A): 0.259 nM | EC50, Jurkat-NFAT activation (V2A): 6.57 nM | EC50, Jurkat-NFAT activation [6]: 0.0954 nM | EC50, Jurkat-NFAT activation (D4A): 9.95 nM | EC50, Jurkat-NFAT activation (Y3A): 15 nM

B3: Molecule B (bispecific antibody, V domains shown)
VH 1: YPQLVESGGGLVKPGGSLRLSCAARYPFTRLDMSWVRQAPGKGLEWVGSISPKGGSTYYNDNVLGRFTISRDNSKNTLYLQMNSLRAEDTAVYYCARDWGFFDNWGQGTLVTVSS
VL 1: AIQMTQSPSSLSASVGDRVTITCRASQSISNYLAWYQQKPGKAPKLLIYNASHPEYDVPSRFSGSGSGTDFTLTISSLQPEDFATYYCQQYSSHPYTFGQGTKLEIK
VH 2: not shown
VL 2: B1 VL 2
EC50 [pM], activation of Jurkat-NFAT reporter cells (luminescence, 6 h) with MAGE-A4 peptide pulsed T2 cells [1]: ~8310 pM | EC50 [pM] 24 h, T-cell mediated lysis of MAGE-A4 peptide pulsed T2 cells [2]: 72.8 pM | EC50 [pM], T-cell mediated lysis of IM-9 cells, 24 h [3]: 1080 pM | EC50 [pM], T-cell mediated lysis of NCI-H1755 cells, 24 h [3]: 168 pM | % of MAGE-A4 signal, Jurkat-NFAT (UBE2V2): 1.37% | % of MAGE-A4 signal, Jurkat-NFAT (ARF3): 1.59% | % of MAGE-A4 signal, Jurkat-NFAT; grey (>2%) [4]: 10.6% | % of MAGE-A4 signal, Jurkat-NFAT (UNC80): 0.98% | % of MAGE-A4 signal, Jurkat-NFAT (VPS13D): 1.8% | % of MAGE-A4 signal, Jurkat-NFAT (ARF1): 1.14% | % of MAGE-A4 signal, Jurkat-NFAT (MTOR): 0.59% | % of MAGE-A4 signal, Jurkat-NFAT (MAGEB2): 1.58% | % of MAGE-A4 signal, Jurkat-NFAT; grey (>2%) (URB1): 67.9% | % of MAGE-A4 signal, Jurkat-NFAT (DYNC1H1): 0.85% | % of MAGE-A4 signal, Jurkat-NFAT (KDM1A): 1.04% | % of MAGE-A4 signal, Jurkat-NFAT (PIGG): 1.46% | % of MAGE-A4 signal, Jurkat-NFAT (SLC45A1): 1.22% | % of MAGE-A4 signal, Jurkat-NFAT (gutQ): 1.11% | % of MAGE-A4 signal, Jurkat-NFAT (PKP1): 0.94% | % of MAGE-A4 signal, Jurkat-NFAT; grey (>2%) (CCS): 10.8% | % of MAGE-A4 signal, Jurkat-NFAT; grey (>2%) (CRMP1): 67.5% | % of MAGE-A4 signal, Jurkat-NFAT; grey (>2%) [5]: 57.9% | % of MAGE-A4 signal, Jurkat-NFAT (FBXO34): 0.91% | % of MAGE-A4 signal, Jurkat-NFAT (KEAP1): 1.07% | % of MAGE-A4 signal, Jurkat-NFAT (BNRF1): 1.05% | % of MAGE-A4 signal, Jurkat-NFAT; grey (>2%) (DPYSL3): 112% | % of MAGE-A4 signal, Jurkat-NFAT (pfkA): 1.1% | % of MAGE-A4 signal, Jurkat-NFAT; grey (>2%) (DPYSL4): 53.1% | % of MAGE-A4 signal, Jurkat-NFAT (GAPDHS): 1.37% | % of MAGE-A4 signal, Jurkat-NFAT (EDC3): 0.63% | EC50, Jurkat-NFAT activation (H8A): 0.717 nM | EC50, Jurkat-NFAT activation (E7A): 3.48 nM | EC50, Jurkat-NFAT activation (R6A): 45.5 nM | EC50, Jurkat-NFAT activation (V10A): 1.01 nM | EC50, Jurkat-NFAT activation (T9A): 0.426 nM | EC50, Jurkat-NFAT activation (G5A): 0.181 nM | EC50, Jurkat-NFAT activation (G1A): 141 nM | EC50, Jurkat-NFAT activation (V2A): 0.258 nM | EC50, Jurkat-NFAT activation [6]: 0.189 nM | EC50, Jurkat-NFAT activation (D4A): 191 nM | EC50, Jurkat-NFAT activation (Y3A): 27.9 nM
